Here are results for two substances from PMC10221750.

Test [1] has as its target BG505 SOSIP.664 trimer (HIV-1 isolate BG505 (Clade A)).
The target is the same in test [2]. Put plainly: SPR. (In SPR one partner is held on a chip, and binding of the other changes the refractive index at the surface.)

The Kd is a measure of binding affinity in units of concentration. A low value points to tighter binding. One may read the koff as a measure of how fast the partners let go of each other. Lower therefore signals a long-lived complex. For orientation: kon means the rate constant with which the complex forms. Higher therefore signals fast association.

As to PGT151 IgG (antibody), the neutralization of BG505 pseudovirus in a TZM-bl assay, IC50 in test [1] came to 0.043 µg/mL.
In test [2], PGT151 Fab returned a KD1 (site 1, heterogeneous-ligand model) of less than 0.1 nM; a KD2 (site 2, heterogeneous-ligand model) of 27 nM; a Kd of 2 nM; a Sm1 (stoichiometry of site 1, heterogeneous-ligand model) (Fab molecules per trimer) of 1.2. Further, in test [2], the Sm1 + Sm2 (cumulative stoichiometry, heterogeneous-ligand model) (Fab molecules per trimer) is 1.9; the Sm2 (stoichiometry of site 2, heterogeneous-ligand model) (Fab molecules per trimer) worked out at 0.7; the koff is 0.00018 s⁻¹; the koff1 (site 1, heterogeneous-ligand model) was less than 1e-05 s⁻¹. In test [2], this substance gave a koff2 (site 2, heterogeneous-ligand model) of 0.00076 s⁻¹; a kon of 87000 M⁻¹ s⁻¹; a kon1 (site 1, heterogeneous-ligand model) of 140000 M⁻¹ s⁻¹; a kon2 (site 2, heterogeneous-ligand model) of 28000 M⁻¹ s⁻¹. In test [2], this substance returned a stoichiometry N (Fab molecules per trimer) of 1.9.
